Source: publication PMC10667646

Target: T1, His-Lmo2795 (RpiR-family transcriptional regulator) (Listeria monocytogenes) (UniProt Q8Y3P0)
T1 sequence: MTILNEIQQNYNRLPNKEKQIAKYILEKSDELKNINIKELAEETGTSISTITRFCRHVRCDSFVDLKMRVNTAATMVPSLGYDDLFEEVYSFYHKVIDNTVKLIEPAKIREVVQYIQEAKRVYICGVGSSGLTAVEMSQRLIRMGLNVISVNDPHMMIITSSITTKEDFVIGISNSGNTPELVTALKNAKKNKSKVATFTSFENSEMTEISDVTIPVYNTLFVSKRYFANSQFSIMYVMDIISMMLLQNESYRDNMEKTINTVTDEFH
Experiment: EMSA
Details: 10 mM Tris-HCl pH 7.5, 50 mM NaCl, 10% glycerol, 5 mM EDTA, 20 mM DTT, 25 C, 20 min; 8% native PAGE in 0.5x TBE at 4 C

Row | Sequence | binding
1 | CGGAACACCCAACAAATTACCAATCGAATAAACTAAAAAAGTCCTTTCAAACGAAAGGACTTTTTATTTTTAACAACAACGTCATTTTTTAAAGCTAGTTTCCGCAACTATCCACGCTAAAATATGAAAATCATTTTCATTTAATCGATATTGATAAAATCATTTTCTTGTGATATAGTCTGTTTGAAAACGCATACTTTACACTGAAACACAGTATAGAGGAGGAGTATCAGTGGGCAATTCTGTTATGGAAAAAATCAAAGGTGGGTTAG (double strand) [lmo2795-nanE operon upstream (promoter) region] | binds
2 | CTTTAATATCCTCTAAGCCAGCATTTTTGATTTTTTTCTGTAGCACCGTCGCGCCCATTGCACTGGATCCAAGCCCCGCATCACAAGCATAGGCGATTCTTTTAACATTTTTAAAATTAAAATCATCTACTGGAGCTTCGAAAACAGAGGAAATACTACTTTTTTTGCCTTTAAGACCTTCCATTTTCTTCGCTGCATCTTG (double strand) [unspecific control, region within the lmo2795-nanE operon] | no binding
